Measured values reported in the DeepSol protein solubility set.

test: soluble on expression in E. coli; label from the status in PepcDB or PDB records

Sequence	soluble on expression in E. coli
MGSDKIHHHHHHMQVPKVTLNNGVEMPILGYGVFQIPPEKTEECVYEAIKVGYRLIDTAASYMNEEGVGRAIKRAIDEGIVRREELFVTTKLWVSDVGYESTKKAFEKSLKKLQLEYIDLYLIHQPFGDVHCAWKAMEEMYKDGLVRAIGVSNFYPDRLMDLMVHHEIVPAVNQIEIHPFYQRQEEIEFMRNYNIQPEAWGPFAEGRKNIFQNGVLRSIAEKYGKTVAQVILRWLTQKGIVAIPKTVRRERMKENISIFDFELTQEDMEKIATLDEGQSAFFSHRDPEVVKWICSLKR	soluble
GPGSMVEYKSAAAIAQALFTTHGKDSTTFNRLLRDRIGKRGDRFTEDHPDTFLYIERSKNANVVAYTARFVDAETKKPVPSGVGRDCIIKHDGPVHAYFITLDPQQMEKLRAKGRTSLIDDLNFVQRKMAYGCSGKSFDVASASRECDNPADFKRWMSAFDPYTLSYVALAKYPTLLLTLKPVKDSNGEENDTAVALIAVIGGELSVVKKIYVSSTEPKHFYELPTVNYIEVFGVSVDKGSDTYEKKAP	not soluble
MGSDKIHHHHHHMNETSSYTIEEVAGLLKVSKLTVYDLIKKGVLPAYRVGRQMRVDEEDLKQYKTNMRMSQPIAAKEAPKQVQEAEPDGRPNVMISGQDISMDILSKHLENAIQETPLRKYKGSLNSLIDMYQGKCDIVSLHLYDAETGQYNAPYVKRILTGEPFCLINVVLRKAGLYVQKGNPKNIQGWKDLKRADIRIINREKGSGARVLLDEQLGLLGVNPADVVGYGDIVTDHYAAASQVSSGQADAGIGAQHAAHMGSVDFIPLIDEQYDIVVLKKNEQLLKAVKEILNSEDYKANLSHLNGYETKLTGKVILET	not soluble
AHHHHHHGSEYKPIRKVVSGNYAAAYAALHARVQVVAAYPITPQTSIIEKIAEFIANGEADIQYIPVESEHSAMAACIGASATGARTFTATSAQGLALMHEMLHWAAGARLPIVMVDVNRAMAPPWSVWDDQTDSLSQRDTGWMQFYAENNQEVYDGVLMAYKVAETVNVPAMVVESAFILSHTYDVVEMIPQELVDEFLPPRKPLYSLANFDEPIAVGALATPNDYYEFRYKLAKAHEEAKKVIKEVGKEFGERFGRDYSQMIETGYIDDADFVFMGMGSLMGTVKEAVDLLRKEGYKVGYAKVRWFRPFPKEELVEIAESVKGIAVLDRNFSFGQEGILFTESKGALYNSSAHPLMKNYIVGLGGRDVTVKDIKAIADDMKKVIESGKVDKEVVWYHLKR	soluble
MAHHHHHHMSVPDLTAEELAYYASLRLEDPDEAALATFLADLEQVHEDHPSDTGAAPSSTVASASGKRGALLTSSRVPACERLDSSDVEGVPPQRRVASVDRQQPSAYAATGLAIRQISAKLFPAPRSATTDSGTRYGVTQVLEKDNLVGGVAGIADAALQTRCVELPARQLTSIAPVQCFLNATHVYLQHNALADLEGVELLSQLQVLVVHHNQLTSLAPLQQLECLSYLDVSHNNVSSSVDVLLRDELPCPSLKSLNLSNNPCWSRCGEAVSDGDGGERHRAYVQQICTACPLLERLDDVVVDDGEEVMQHSDNSTESDVKDVAERRSASAAGAAPSQAGGITVRRVHNSVEAARAASSRACVHDIHTRSSLAPPGSLVSGEAELSARPPRSAQVNKARLLEEEQARLVHQLFLRRAVGTAPGSAKAVDTVSTSPLHSNRSSTGSGHFHPGDAATEAPTEQKANQPADSTGDVSALYSTRGDILHLYHSLQFTQEVSQARLQRDVAAHWDDVSRVLQTVQALQQDRRRRIQQRLQEQTSAYTDSLIMLEKESFTKDLDRYRNSDGSRRAAPAGIHAAASAPAAPPAVDTPNGITAVAHTSAAVDGNCASKASSTSTHPPEKPKGKTKKGPSVPKPPPRR	not soluble
MMHTWFECKIRYEKVMENGMNKKVTEPYLVDALSFTEAEARIIEEITPYISGEFTVSDIKRANYSELFPSEEDAADRWFKCKLFFITLDEKSGAEKKTSTTVLVQASDLRDAVKKLDEGMKGTMADYVIASVAETAIMDVYPYEAEPDVKPEFPDAGKTE	not soluble
TLTSTLASMMDALETALQPLKKYGFPVESVVLAFSLTLRLLPLMLNTVNEVLDARKARGVAFSLTALGTPVMIRSINRARSIADALMARGAGD	not soluble
MPDELKPHFANVQAHYDLSDDFFRLFLDPTQTYSCAYFERDDMTLQEAQIAKIDLALGKLGLQPGMTLLDVGCGWGATMMRAVEKYDVNVVGLTLSKNQANHVQQLVANSENLRSKRVLLAGWEQFDEPVDRIVSIGAFEHFGHERYDAFFSLAHRLLPADGVMLLHTITGLHPKEIHERGLPMSFTFARFLKFIVTEIFPGGRLPSIPMVQECASANGFTVTRVQSLQPHYAKTLDLWSAALQANKGQAIALQSEEVYERYMKYLTGCAEMFRIGYIDVNQFTCQK	soluble
QLHELANTFGQDLQRRYGEKVHKLTLHGGFSCPNRDGTIGKGGCTFCNVASFADEQEQFKSIHDQLTDRAGEVQRAKKYLAYFQAYTSTFAEVQVLKNMYEEALKAANIVGLCVGTRPDCVPDAVLDLLKGYVDDGYEVWLELGLQTANDKTLKRINRGHDFACYDAITRKARSLGIKVCTHLIIGLPGDTRDDNRQTLDKVLATGTDGIKLHPLHIVEGSTLAKAWRAGKLDAPEMDEYVDIACELIRLTPPEVVYHRVSATARQPTLLSPLWCEPRWLGLTNVGMALNNSGPQGS	not soluble
MSEVKVITGTSAAAEAAKLADVDVIAAYPITPQTTCVEKLADFVANGELNAEYIKVESEHSAMSASIAASATGARTFTATSSQGLALMHEVLFAAAGMRVPVVMMNANRALSAPINIWNDQQDSLSQRDTGWIQLYAEDNQEVLDLVIQAFKIAEDEKVLLPVMVNLDGFILTHTVEPVTLPKQESVLDFIGSYEPKHAYLDPKKPMTQGSLGDPNYYMETRYAIETAMRNAEKVIADVHDAFAEKFNRAYGNGLIESYNLEKAENVIVAMGSICGTIKDMIDLKKKEGVEIGLLKIRCYRPLPVEMIKDALKNAKNVAILDKSISLGMNKGAIYADVASFLKDKKTVNYIVGLGGRDITPEDILGIYVDVETSEDGKTNWVGLKEE	not soluble
MRPCIVIPIYNHKDVIGLTVARLVTHGLPIFIVDDGSDAPTQAVLAALAGQHAGCVTLLRLPVNGGKGAAVMAGLRAARSDGFTHALQIDADGQHDAADVPTFMDAARDHPEAVILGQPVYDATVPKARLYGRYLTHAWVWIETLSFDIRDSMCGFRVYPLALACALIDEVALPTRMDFDIEILVRLHWRRTRFVAIPTRVTYAADGVSHFDVLWDNIRISQSHARLVAGMLVRLPLLLANKARPRQRADQAAAGKAHWWRIAERGSQLGMRLLALSCRLLGTRITALWLYPIVAYFLLTGRAARQASRQYFERLAAASAQDRTPAPGWRSAYRHMIAFAQSGLDKLAAWSGHVSPHRVRFDDPAPFEALMASGRGALVIGAHLGNLEMTRALATRHGQVKVTAVVYIEHARRFNRVLAGAHPEFATHLLEVSDFGPATAMRMQERIDAGELLVIVGDRVPATEMGRTVEATFLGAPARFAQGPYILAHALGCPVYLFFCLKTRQDYTLYFEPFAERIELPRHARATHLATLAQRYASRLEHHCRKAPFQWFNFFDFWARPKKDAHGLEHHHHHH	not soluble
MGHHHHHHSHRNRARFAARKQLVLNLVSSPGSGKTTLLTETLMRLKDSVPCAVIEGDQQTVNDAARIRATGTPAIQVNTGKGCHLDAQMIADAAPRLPLDDNGILFIENVGNLVCPASFDLGEKHKVAVLSVTEGEDK	soluble
MSLITLYHCHGARSFRPLWMLEEMGLDYELKMLPFPPRVFAKEYLAINPLGTIPFMIDGDTKMTESSGICQYLGTRHGPTPLVVGVDDPAYGAYLNWMFFSDATLTFPQTLVLRYGTLEPNERRQPQVVEDYAKWFLGRLRAVEVAAGQGDYLCAGRFTAADVVNGYALRLASNLGLAKDFGPNVTAYWARLQQRDGYQRALEAETRAGEAQQVPKRAEGHHHHHH	soluble
SNASKGMALRSVGGMVIESPRNETEHWLLETVGRQAQQAGIGMPTVAIYDSADINAFATGAKRDDSLVAVSTGLLHNMTRDEAEAVLAHEVSHIANGDMVTMTLMQG	soluble
